Molecular target: T1, ZIKV envelope protein domain III-hFc fusion protein (ZIKV-DIII-hFc) (Zika virus strain MR766, UniProt Q32ZE1)
T1 construct: source: 293 FreeStyle, transient, purified from conditioned culture medium
Assay: BLI; Octet-Red96, 37 °C; […] (30 μg/mL, sodium acetate pH 5.0) […]; association 300 s, dissociation 1500 s; 1:1 Langmuir model; […]
Conditions: both partners purified

B1: m302 IgG1 (antibody, V domains shown)
VH: EVQLVQSGGGLVKPGRSLRLSCAASGFTFSSYAMHWVRQAPGKGLEWVAVISYDGSNKYYADSVKGRFTISRDNSKNTLYLQMNSLRAEDTAVYYCAREIGDYYYYGMDVWGQGTLVTVSS
VL: EIVMTQSPATLSLSPGERATLSCRASQSVSSYLAWYQQKPGQAPRLLIYDASNRATGIPARFSGSGSGTDFTLTISSLQPEDFATYYCQQSYSTPLTFGGGTKVEIK
notes: also called m302 mAb; IgG m302; source: Expi293, transient, purified (protein G)
**Q.** Which Kd does the source give for B1 here?
**A.** The Kd was 47 nM.

**Q.** And the koff?
**A.** Its koff is 0.002 s⁻¹.

B2: m301 IgG1 (antibody, V domains shown)
VH: EVQLVQSGGGLVKPGGSLRLSCAASGFTFSSYGMHWVRQAPGKGLEWVAVISYDGSNKYYADSVKGRFTISRDNSKNTLYLQMNSLRAEDTAVYYCAKEVGRSYFDYWGQGTLVTVSS
VL: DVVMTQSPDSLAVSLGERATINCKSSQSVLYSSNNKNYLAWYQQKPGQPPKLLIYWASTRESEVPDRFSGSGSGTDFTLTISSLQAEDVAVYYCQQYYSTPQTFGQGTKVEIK
notes: also called m301 mAb; IgG m301; source: Expi293, transient, purified (protein G)
**Q.** With B2 as the binder, how does the Kd read?
**A.** Its Kd is 0.2 nM.

**Q.** What about the koff of the same binder?
**A.** The koff was 4e-05 s⁻¹.

From publication PMC5658772 (Emerging Microbes & Infections, 2017)
